Values quoted from earlier work in PMC5938170.

Assays:
Met (Homo sapiens) = Met (Homo sapiens) (UniProt P08581)
EGFR (Homo sapiens) = EGFR (Homo sapiens) (UniProt P00533)

Sequence of UniProt P08581 (P08581 25-932): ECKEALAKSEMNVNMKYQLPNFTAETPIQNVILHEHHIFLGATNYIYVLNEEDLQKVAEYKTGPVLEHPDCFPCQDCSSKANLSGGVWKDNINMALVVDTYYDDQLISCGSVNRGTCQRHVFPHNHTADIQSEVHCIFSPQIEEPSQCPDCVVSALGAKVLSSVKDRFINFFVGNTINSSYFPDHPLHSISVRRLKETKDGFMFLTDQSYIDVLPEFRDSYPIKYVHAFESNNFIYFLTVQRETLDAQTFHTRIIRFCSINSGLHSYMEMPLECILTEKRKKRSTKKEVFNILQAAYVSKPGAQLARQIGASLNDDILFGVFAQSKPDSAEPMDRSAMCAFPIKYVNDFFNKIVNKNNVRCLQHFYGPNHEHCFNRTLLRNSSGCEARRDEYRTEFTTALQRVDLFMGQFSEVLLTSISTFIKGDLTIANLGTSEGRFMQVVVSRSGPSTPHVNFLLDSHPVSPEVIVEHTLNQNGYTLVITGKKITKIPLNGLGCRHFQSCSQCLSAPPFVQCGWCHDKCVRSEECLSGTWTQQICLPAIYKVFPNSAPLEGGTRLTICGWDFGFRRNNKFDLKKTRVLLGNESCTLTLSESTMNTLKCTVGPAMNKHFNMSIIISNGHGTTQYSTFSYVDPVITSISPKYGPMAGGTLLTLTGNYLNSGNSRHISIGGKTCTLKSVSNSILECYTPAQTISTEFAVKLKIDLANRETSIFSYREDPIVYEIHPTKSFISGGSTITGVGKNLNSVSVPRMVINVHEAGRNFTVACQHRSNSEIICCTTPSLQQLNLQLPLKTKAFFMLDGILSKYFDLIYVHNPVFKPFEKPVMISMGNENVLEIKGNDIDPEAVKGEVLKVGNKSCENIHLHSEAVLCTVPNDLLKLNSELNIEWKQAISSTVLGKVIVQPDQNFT

In the case of Decorin (from UniProt P07585), the Kd (Met (Homo sapiens)) is listed as 2 nM and the Kd (EGFR (Homo sapiens)) is listed as 75 nM.
